Results taken from patent US20150344570A1 (published 2015).

T1: FcgRIIb (FcγRIIb) extracellular domain with C-terminal His tag (human, UniProt P31994 43-217)
T1 construct: extracellular domain; not shown: His tag attached to the C terminus
T1 sequence (looked up): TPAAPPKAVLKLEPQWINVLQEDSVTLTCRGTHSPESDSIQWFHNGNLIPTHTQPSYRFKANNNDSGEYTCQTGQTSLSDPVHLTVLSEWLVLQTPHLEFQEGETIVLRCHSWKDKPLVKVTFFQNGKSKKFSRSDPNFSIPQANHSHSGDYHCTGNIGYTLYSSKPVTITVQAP


Experiments:
Assay in all cases: SPR (Biacore); KD of H240-Kn061/H240-Hl071/L73-k0 divided by KD of the variant
[1] = target: T1, FcgRIIb (FcγRIIb) extracellular domain …
Protocol: (§1) The antibodies were assessed for the binding to each FcgR. […] The resultant value was defined as relative KD, and used as an assessment indicator.
(§2) Analysis of interaction between objective antibody and the FcγR was carried out using Biacore T100 (GE Healthcare), Biacore T200, Biacore A100, and Biacore 4000. HBS-EP+ (GE Healthcare) was used as the running buffer, and the measurement temperature was set to 25° C. Chips produced by immobilizing the antigen peptide by the amine coupling method to a Series S sensor Chip CM5 (GE Healthcare), chips produced by allowing preliminarily biotinylated antigen peptides to interact with and immobilize onto a Series S Sensor Chip SA (certified) (GE Healthcare), chips produced by immobilizing Protein L (ACTIGEN, BioVision) to Series S Sencor Chip CM5 (GE Healthcare), or chips produced by immobilizing Protein A/G (Thermo Scientific) to Series S Sencor Chip CM5 (GE Healthcare) were used. Antibodies of interest were captured onto these chips, and allowed to interact to each FcγR diluted with running buffer.

[2] = target: T2, FcgRIIIa V (FcγRIIIa type V) extracellular domain with C-terminal His tag (human, UniProt P08637 17-208)
T2 construct: extracellular domain; also called FcγRIIIa V; not shown: His tag attached to the C terminus
Protocol: as §1, §2

[3] = target: T3, FcgRIIIa F (FcγRIIIa type F) extracellular domain with C-terminal His tag (human, UniProt P08637 17-208)
T3 construct: extracellular domain; also called FcγRIIIa F; 3aF; not shown: His tag attached to the C terminus
Protocol: as §1, §2

T2 sequence (P08637 17-208 F176V limits assumed): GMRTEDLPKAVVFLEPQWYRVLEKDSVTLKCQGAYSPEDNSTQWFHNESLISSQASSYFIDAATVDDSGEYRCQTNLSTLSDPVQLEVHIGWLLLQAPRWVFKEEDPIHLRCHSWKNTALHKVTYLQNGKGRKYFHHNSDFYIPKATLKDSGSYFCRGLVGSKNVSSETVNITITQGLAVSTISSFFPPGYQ
T3 sequence (P08637 17-208): as the sequence (P08637 17-208 F176V limits assumed) above, with V160F counted along it

Row | Binder | relative KD [1] [ratio] | relative KD [2] [ratio] | relative KD [3] [ratio]
1 | H240-Kn061/H240-Hl071/L73-k0 variant with W236Y in H240-Kn061 (antibody, human IgG1, kappa, anti-epiregulin heterodimerized IgG1; also called H240-Kn061 W236Y) heavy 1: QDQLVQSGAEVKKPGASVKVSCKASGFNIKDTYIQWVRQAPGQGLEWMGRIDPLRKQTKYREKFEGRVTITADTSTNTAYMELSSLRSEDTAVYYCVRSGREFDYWGQGTLVTVSSASTKGPSVFPLAPSSKSTSGGTAALGCLVKDYFPEPVTVSWNSGALTSGVHTFPAVLQSSGLYSLSSVVTVPSSSLGTQTYICNVNHKPSNTKVDKKVEPKSCDKTHTCPPCPAPEYYYGPSVFLFPPKPKDTLMISRTPEVTCVVVDVSDEDPEVKFNWYVDGVEVHNAKTKPREEQYNATYRVVSVLTVLHQDWLNGKEYKCKVSNKALPAPIEKTISKAKGQPREPQVCTLPPSRDELTKNQVSLWCLVKGFYPSDIAVEWESNGQPENNYKTTPPVLDSDGSFFLYSKLTVDKSRWQQGNVFSCSVMHEALHNHYTQKSLSLSP heavy 2: QDQLVQSGAEVKKPGASVKVSCKASGFNIKDTYIQWVRQAPGQGLEWMGRIDPLRKQTKYREKFEGRVTITADTSTNTAYMELSSLRSEDTAVYYCVRSGREFDYWGQGTLVTVSSASTKGPSVFPLAPSSKSTSGGTAALGCLVKDYFPEPVTVSWNSGALTSGVHTFPAVLQSSGLYSLSSVVTVPSSSLGTQTYICNVNHKPSNTKVDKKVEPKSCDKTHTCPPCPAPELLGGPSVFLFPPKPKDTLMISRTPEVTCVVVDVSHEDPEVKFNWYVDGVEVHNAKTKPREEQYNSTYRVVSVLTVLHQDWLNGKEYKCKVSNDALPMPIEETISKAKGQPREPQVYTLPPSRCELTKNQVSLSCAVKGFYPSDIAVEWESNGQPENNYKTTPPVLDSDGSFFLVSKLTVDKSRWQQGNVFSCSVMHEALHNHYTQKSLSLSP light: DIQMTQSPSSLSASVGDRVTITCRASQDIHKYIAWYQQKPGQAPRLLIQYTSTLQPGVPSRFSGSGSGTDYTFTISSLQPEDIATYYCLQYEQLRTFGGGTKVEIKRTVAAPSVFIFPPSDEQLKSGTASVVCLLNNFYPREAKVQWKVDNALQSGNSQESVTEQDSKDSTYSLSSTLTLSKADYEKHKVYACEVTHQGLSSPVTKSFNRGEC | 0.8 | 1.2 | 0.8
2 | H240-Kn061/H240-Hl071/L73-k0 variant with Y234A in H240-Kn061 (antibody, human IgG1, kappa, anti-epiregulin heterodimerized IgG1; also called H240-Kn061 Y234A) heavy 1: QDQLVQSGAEVKKPGASVKVSCKASGFNIKDTYIQWVRQAPGQGLEWMGRIDPLRKQTKYREKFEGRVTITADTSTNTAYMELSSLRSEDTAVYYCVRSGREFDYWGQGTLVTVSSASTKGPSVFPLAPSSKSTSGGTAALGCLVKDYFPEPVTVSWNSGALTSGVHTFPAVLQSSGLYSLSSVVTVPSSSLGTQTYICNVNHKPSNTKVDKKVEPKSCDKTHTCPPCPAPEAYWGPSVFLFPPKPKDTLMISRTPEVTCVVVDVSDEDPEVKFNWYVDGVEVHNAKTKPREEQYNATYRVVSVLTVLHQDWLNGKEYKCKVSNKALPAPIEKTISKAKGQPREPQVCTLPPSRDELTKNQVSLWCLVKGFYPSDIAVEWESNGQPENNYKTTPPVLDSDGSFFLYSKLTVDKSRWQQGNVFSCSVMHEALHNHYTQKSLSLSP heavy 2: QDQLVQSGAEVKKPGASVKVSCKASGFNIKDTYIQWVRQAPGQGLEWMGRIDPLRKQTKYREKFEGRVTITADTSTNTAYMELSSLRSEDTAVYYCVRSGREFDYWGQGTLVTVSSASTKGPSVFPLAPSSKSTSGGTAALGCLVKDYFPEPVTVSWNSGALTSGVHTFPAVLQSSGLYSLSSVVTVPSSSLGTQTYICNVNHKPSNTKVDKKVEPKSCDKTHTCPPCPAPELLGGPSVFLFPPKPKDTLMISRTPEVTCVVVDVSHEDPEVKFNWYVDGVEVHNAKTKPREEQYNSTYRVVSVLTVLHQDWLNGKEYKCKVSNDALPMPIEETISKAKGQPREPQVYTLPPSRCELTKNQVSLSCAVKGFYPSDIAVEWESNGQPENNYKTTPPVLDSDGSFFLVSKLTVDKSRWQQGNVFSCSVMHEALHNHYTQKSLSLSP light: DIQMTQSPSSLSASVGDRVTITCRASQDIHKYIAWYQQKPGQAPRLLIQYTSTLQPGVPSRFSGSGSGTDYTFTISSLQPEDIATYYCLQYEQLRTFGGGTKVEIKRTVAAPSVFIFPPSDEQLKSGTASVVCLLNNFYPREAKVQWKVDNALQSGNSQESVTEQDSKDSTYSLSSTLTLSKADYEKHKVYACEVTHQGLSSPVTKSFNRGEC | 1.2 | 0.9 | 0.8
3 | H240-Kn061/H240-Hl071/L73-k0 variant with Y234H in H240-Kn061 (antibody, human IgG1, kappa, anti-epiregulin heterodimerized IgG1; also called H240-Kn061 Y234H) heavy 1: QDQLVQSGAEVKKPGASVKVSCKASGFNIKDTYIQWVRQAPGQGLEWMGRIDPLRKQTKYREKFEGRVTITADTSTNTAYMELSSLRSEDTAVYYCVRSGREFDYWGQGTLVTVSSASTKGPSVFPLAPSSKSTSGGTAALGCLVKDYFPEPVTVSWNSGALTSGVHTFPAVLQSSGLYSLSSVVTVPSSSLGTQTYICNVNHKPSNTKVDKKVEPKSCDKTHTCPPCPAPEHYWGPSVFLFPPKPKDTLMISRTPEVTCVVVDVSDEDPEVKFNWYVDGVEVHNAKTKPREEQYNATYRVVSVLTVLHQDWLNGKEYKCKVSNKALPAPIEKTISKAKGQPREPQVCTLPPSRDELTKNQVSLWCLVKGFYPSDIAVEWESNGQPENNYKTTPPVLDSDGSFFLYSKLTVDKSRWQQGNVFSCSVMHEALHNHYTQKSLSLSP heavy 2: QDQLVQSGAEVKKPGASVKVSCKASGFNIKDTYIQWVRQAPGQGLEWMGRIDPLRKQTKYREKFEGRVTITADTSTNTAYMELSSLRSEDTAVYYCVRSGREFDYWGQGTLVTVSSASTKGPSVFPLAPSSKSTSGGTAALGCLVKDYFPEPVTVSWNSGALTSGVHTFPAVLQSSGLYSLSSVVTVPSSSLGTQTYICNVNHKPSNTKVDKKVEPKSCDKTHTCPPCPAPELLGGPSVFLFPPKPKDTLMISRTPEVTCVVVDVSHEDPEVKFNWYVDGVEVHNAKTKPREEQYNSTYRVVSVLTVLHQDWLNGKEYKCKVSNDALPMPIEETISKAKGQPREPQVYTLPPSRCELTKNQVSLSCAVKGFYPSDIAVEWESNGQPENNYKTTPPVLDSDGSFFLVSKLTVDKSRWQQGNVFSCSVMHEALHNHYTQKSLSLSP light: DIQMTQSPSSLSASVGDRVTITCRASQDIHKYIAWYQQKPGQAPRLLIQYTSTLQPGVPSRFSGSGSGTDYTFTISSLQPEDIATYYCLQYEQLRTFGGGTKVEIKRTVAAPSVFIFPPSDEQLKSGTASVVCLLNNFYPREAKVQWKVDNALQSGNSQESVTEQDSKDSTYSLSSTLTLSKADYEKHKVYACEVTHQGLSSPVTKSFNRGEC | 1.3 | 0.9 | 0.8
4 | H240-Kn061/H240-Hl071/L73-k0 variant with Y234G in H240-Kn061 (antibody, human IgG1, kappa, anti-epiregulin heterodimerized IgG1; also called H240-Kn061 Y234G) heavy 1: QDQLVQSGAEVKKPGASVKVSCKASGFNIKDTYIQWVRQAPGQGLEWMGRIDPLRKQTKYREKFEGRVTITADTSTNTAYMELSSLRSEDTAVYYCVRSGREFDYWGQGTLVTVSSASTKGPSVFPLAPSSKSTSGGTAALGCLVKDYFPEPVTVSWNSGALTSGVHTFPAVLQSSGLYSLSSVVTVPSSSLGTQTYICNVNHKPSNTKVDKKVEPKSCDKTHTCPPCPAPEGYWGPSVFLFPPKPKDTLMISRTPEVTCVVVDVSDEDPEVKFNWYVDGVEVHNAKTKPREEQYNATYRVVSVLTVLHQDWLNGKEYKCKVSNKALPAPIEKTISKAKGQPREPQVCTLPPSRDELTKNQVSLWCLVKGFYPSDIAVEWESNGQPENNYKTTPPVLDSDGSFFLYSKLTVDKSRWQQGNVFSCSVMHEALHNHYTQKSLSLSP heavy 2: QDQLVQSGAEVKKPGASVKVSCKASGFNIKDTYIQWVRQAPGQGLEWMGRIDPLRKQTKYREKFEGRVTITADTSTNTAYMELSSLRSEDTAVYYCVRSGREFDYWGQGTLVTVSSASTKGPSVFPLAPSSKSTSGGTAALGCLVKDYFPEPVTVSWNSGALTSGVHTFPAVLQSSGLYSLSSVVTVPSSSLGTQTYICNVNHKPSNTKVDKKVEPKSCDKTHTCPPCPAPELLGGPSVFLFPPKPKDTLMISRTPEVTCVVVDVSHEDPEVKFNWYVDGVEVHNAKTKPREEQYNSTYRVVSVLTVLHQDWLNGKEYKCKVSNDALPMPIEETISKAKGQPREPQVYTLPPSRCELTKNQVSLSCAVKGFYPSDIAVEWESNGQPENNYKTTPPVLDSDGSFFLVSKLTVDKSRWQQGNVFSCSVMHEALHNHYTQKSLSLSP light: DIQMTQSPSSLSASVGDRVTITCRASQDIHKYIAWYQQKPGQAPRLLIQYTSTLQPGVPSRFSGSGSGTDYTFTISSLQPEDIATYYCLQYEQLRTFGGGTKVEIKRTVAAPSVFIFPPSDEQLKSGTASVVCLLNNFYPREAKVQWKVDNALQSGNSQESVTEQDSKDSTYSLSSTLTLSKADYEKHKVYACEVTHQGLSSPVTKSFNRGEC | 0.9 | 0.9 | 0.8
